Earlier results on two substances are cited in PMC7590224.

The data set deals with hLarp7 xRRM domain (human). As to conditions: No direct binding assays in this paper (only in vivo E. coli suppressor tRNA reporter assays, left out); conditions of the cited Kd values not given.

Usually Kd stands for the constant that tells how readily two partners part at equilibrium. On to 7SK RNA stem-loop 4 (SL4), for which the Kd was 0.129 µM.
In the case of 7SK SL4 U311A, the Kd was 0.051 µM.
